Values joined by “and” are separate entries in the source; they are usually repeats but may differ in a detail not shown here. Equal values may be shown once.
Key:
[1] = biological target: endogenous latent TGFβ secreted by B9F cells (latent TGFβ1, 2 and 3) (rat); test: cell-based or functional assay
[2] = biological target: active TGFβ generated by positive B9F clones (rat); test: cell-based or functional assay

Row | Substance | rightward shift in GFP fluorescence of B9F reporter cells (percent of cells in the bright gate) [1] [%] | luciferase activity of TMLC co-culture with positive clones, with against without the TGFβ inhibitor (LAP) (fraction of the value without inhibitor) [2]
1 | integrin ανβ6 on B9F reporter cells (retrovirally expressed β6-integrin subunit paired with the endogenously expressed αν-integrin subunit) (receptor) | 48 | 
2 | integrin ανβ8 on B9F reporter cells (retrovirally expressed β8-integrin subunit paired with the endogenously expressed αν-integrin subunit) (receptor) | 25 | 
3 | Recombinant simian TGFβ1 LAP (from UniProt P09533 30-278) |  | 0.33 and 0.5
